{"source": "paper PMC10353856", "key": {"[1]": {"target": "PRC2 5-mer WT (EZH2-SUZ12-EED-RBBP4-AEBP2) (UniProt Q15910;Q15022;O75530;Q09028;Q6ZN18 1-746;1-739;1-441;1-425;1-517)", "experiment": "EMSA"}, "[2]": {"target": "T1, PRC2 5-mer MT (RNA-binding mutant EZH2) (UniProt Q15910;Q15022;O75530;Q09028;Q6ZN18 1-746;1-739;1-441;1-425;1-517, F32A;R34A;D36A;K39A;P489N;R490A;K491A;K492I;K493R;R494S)", "experiment": "EMSA"}, "[3]": {"target": "T1, PRC2 5-mer MT (RNA-binding mutant EZH2)", "experiment": "fluorescence anisotropy"}, "[4]": {"target": "PRC2 4-mer MT (RNA-binding mutant EZH2) (UniProt Q15910;Q15022;O75530;Q09028 1-746;1-739;1-441;1-425, F32A;R34A;D36A;K39A;P489N;R490A;K491A;K492I;K493R;R494S)", "sequence (Q15910 whole entry F32A/R34A/D36A/K39A/P489N/R490A/K491A/K492I/K493R/R494S, chain 1 of 4)": "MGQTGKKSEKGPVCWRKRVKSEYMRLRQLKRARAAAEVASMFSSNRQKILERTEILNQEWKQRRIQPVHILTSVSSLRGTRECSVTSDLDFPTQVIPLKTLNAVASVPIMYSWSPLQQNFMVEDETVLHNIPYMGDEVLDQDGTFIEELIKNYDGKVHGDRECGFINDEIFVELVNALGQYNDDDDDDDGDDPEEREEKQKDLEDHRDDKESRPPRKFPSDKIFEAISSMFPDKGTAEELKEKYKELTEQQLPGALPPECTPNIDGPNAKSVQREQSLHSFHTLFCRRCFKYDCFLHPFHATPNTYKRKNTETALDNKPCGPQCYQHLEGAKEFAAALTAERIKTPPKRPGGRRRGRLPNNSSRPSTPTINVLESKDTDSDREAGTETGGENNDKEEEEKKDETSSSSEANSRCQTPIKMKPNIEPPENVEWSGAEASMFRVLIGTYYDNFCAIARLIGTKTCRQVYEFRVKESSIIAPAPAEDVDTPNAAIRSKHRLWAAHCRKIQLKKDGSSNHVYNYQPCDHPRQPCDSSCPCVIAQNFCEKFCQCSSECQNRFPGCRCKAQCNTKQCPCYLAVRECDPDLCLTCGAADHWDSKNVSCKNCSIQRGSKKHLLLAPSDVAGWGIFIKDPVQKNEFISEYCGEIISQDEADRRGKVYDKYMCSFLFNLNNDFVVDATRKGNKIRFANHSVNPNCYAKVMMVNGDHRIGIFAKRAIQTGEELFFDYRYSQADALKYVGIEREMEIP", "sequence (Q15022 whole entry, stated change not applied, chain 2 of 4)": "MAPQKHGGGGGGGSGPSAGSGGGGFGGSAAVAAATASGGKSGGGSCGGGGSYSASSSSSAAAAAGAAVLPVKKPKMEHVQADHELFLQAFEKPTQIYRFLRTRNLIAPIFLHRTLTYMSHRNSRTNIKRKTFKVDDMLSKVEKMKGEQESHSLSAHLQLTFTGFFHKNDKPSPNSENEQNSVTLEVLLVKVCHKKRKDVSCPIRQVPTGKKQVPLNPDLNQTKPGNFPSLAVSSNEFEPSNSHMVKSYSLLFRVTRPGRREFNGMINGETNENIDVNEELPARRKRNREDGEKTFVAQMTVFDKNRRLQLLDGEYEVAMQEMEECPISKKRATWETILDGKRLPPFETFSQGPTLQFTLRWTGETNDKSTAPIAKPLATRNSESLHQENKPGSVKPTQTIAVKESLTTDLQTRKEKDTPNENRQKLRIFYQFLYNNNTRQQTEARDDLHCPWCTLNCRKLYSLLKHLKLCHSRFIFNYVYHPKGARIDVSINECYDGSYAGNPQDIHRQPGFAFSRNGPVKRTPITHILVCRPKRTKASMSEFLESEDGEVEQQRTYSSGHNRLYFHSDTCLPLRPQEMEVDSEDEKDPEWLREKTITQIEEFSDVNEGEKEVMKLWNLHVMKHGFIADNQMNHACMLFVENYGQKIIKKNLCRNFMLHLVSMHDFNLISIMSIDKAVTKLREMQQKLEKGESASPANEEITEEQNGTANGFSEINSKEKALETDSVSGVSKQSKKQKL", "sequence (O75530 whole entry, stated change not applied, chain 3 of 4)": "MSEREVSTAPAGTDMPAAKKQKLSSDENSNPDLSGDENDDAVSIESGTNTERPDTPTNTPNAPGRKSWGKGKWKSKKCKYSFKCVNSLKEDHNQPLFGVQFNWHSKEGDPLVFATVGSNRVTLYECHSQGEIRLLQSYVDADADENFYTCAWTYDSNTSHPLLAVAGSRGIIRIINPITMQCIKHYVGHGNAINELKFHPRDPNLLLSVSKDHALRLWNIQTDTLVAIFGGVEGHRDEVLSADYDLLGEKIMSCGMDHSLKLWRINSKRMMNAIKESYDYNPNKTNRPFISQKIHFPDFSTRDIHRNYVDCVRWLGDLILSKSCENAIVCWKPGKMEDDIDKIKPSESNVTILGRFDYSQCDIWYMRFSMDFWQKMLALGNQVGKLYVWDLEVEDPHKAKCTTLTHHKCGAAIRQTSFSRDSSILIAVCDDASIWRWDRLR", "sequence (Q09028 whole entry, stated change not applied, chain 4 of 4)": "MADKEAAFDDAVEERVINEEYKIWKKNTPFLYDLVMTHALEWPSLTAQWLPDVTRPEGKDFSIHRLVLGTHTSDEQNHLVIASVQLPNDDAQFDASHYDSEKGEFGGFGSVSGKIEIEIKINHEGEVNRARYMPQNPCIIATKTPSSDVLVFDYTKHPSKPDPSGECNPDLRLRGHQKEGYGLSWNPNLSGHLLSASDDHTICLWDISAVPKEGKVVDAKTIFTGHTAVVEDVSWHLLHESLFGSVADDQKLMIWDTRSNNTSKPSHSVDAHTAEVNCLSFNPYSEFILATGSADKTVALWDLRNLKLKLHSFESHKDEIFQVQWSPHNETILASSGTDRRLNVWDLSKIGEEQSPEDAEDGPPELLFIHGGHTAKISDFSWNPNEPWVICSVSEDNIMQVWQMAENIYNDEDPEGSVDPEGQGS", "experiment": "fluorescence anisotropy"}}, "data": [{"binder": "GGAAGGAAGGAAGGAAGGAAGGAAGGAAGGAAGGAAGGAA (structured_RNA)", "note": "[(GGAA)10 G4 RNA 40-mer]", "values": [{"measurement": "Kd", "setting": "[1]", "value": 2, "unit": "nM"}, {"measurement": "Kd", "setting": "[2]", "value": 12, "unit": "nM"}]}, {"binder": "GGAAGGAAGGAAGGAAGGAAGGAAGGAAGGAAGGAAGGAA (structured_RNA)", "note": "[Alexa 488-(GGAA)10 RNA]", "values": [{"measurement": "binding signal", "setting": "[3]", "value": 30, "unit": "fold koff increase vs WT"}, {"measurement": "binding signal", "setting": "[4]", "value": 8, "unit": "fold koff increase vs WT"}]}]}
